The values that follow are results of earlier work, collected in article PMC11431639.

Usually Kd stands for the free concentration of one partner at which half of the binding sites on the other are occupied at equilibrium, for simple one-to-one binding.

In data set [1] the target is INF2 DAD (Homo sapiens) (UniProt Q27J81).
In data set [2] the target is mDia1 DAD (Mus musculus) (UniProt O08808).
Sequence of mDia1 DAD (Mus musculus) (O08808 1174-1208): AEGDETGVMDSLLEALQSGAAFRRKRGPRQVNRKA

Sequence of INF2 DID (Q27J81 32-261): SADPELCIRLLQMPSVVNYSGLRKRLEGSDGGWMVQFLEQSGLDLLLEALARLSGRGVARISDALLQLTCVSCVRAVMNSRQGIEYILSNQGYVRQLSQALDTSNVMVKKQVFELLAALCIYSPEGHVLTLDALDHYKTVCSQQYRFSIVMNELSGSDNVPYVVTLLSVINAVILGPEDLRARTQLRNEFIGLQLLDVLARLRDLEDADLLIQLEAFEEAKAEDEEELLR
Sequence of mDia1 DID (O08808 129-369): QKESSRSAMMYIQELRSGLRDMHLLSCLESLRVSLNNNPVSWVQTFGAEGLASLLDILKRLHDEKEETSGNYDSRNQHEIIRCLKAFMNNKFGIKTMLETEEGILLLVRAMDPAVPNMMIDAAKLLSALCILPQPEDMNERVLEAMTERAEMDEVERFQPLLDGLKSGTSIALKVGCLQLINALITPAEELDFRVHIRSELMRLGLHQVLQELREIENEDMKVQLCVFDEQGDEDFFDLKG
Sequence of INF2 DAD (Homo sapiens) (Q27J81 971-1000): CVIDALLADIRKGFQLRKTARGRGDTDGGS

On to INF2 DID (from UniProt Q27J81), for which the Kd in data set [1] was 1100 nM.
As for mDia1 DID (from UniProt O08808), the equilibrium dissociation constant (Kd) in data set [2] is 280 nM.
